Measurements taken from US20120009181A1.

Target: human folate receptor 1 (FOLR1) (human)

EC50 of ADCC activity on IGROV-1 cells: 0.16 ng/mL
Substance: MorAb-003 (Farletuzumab) (antibody)
